Results on three molecules are retold here after patent publication US7125658B2, “Small protein that interacts with a ribonucleotide reductase subunit and uses thereof” (The Trustees of Columbia University in the City of New York, priority 1998, dated 2006).

The labels stand for the following.
B1: GBD-Rnr2 two-hybrid fusion (plasmid pWJ729) (other, UniProt P04386 1-147, looked up)
chain: MKLLSSIEQACDICRLKKLKCSKEKPKCAKCLKNNWECRYSPKTKRSPLTRAHLTEVESRLERLEQLFLLIFPREDLDMILKMDSLQDIKALLTGLFVQDNVNKDAVTDRLASVETDMPLTLRQHRISATSSSEESSNKGQRQLTVSMPKETPSKAAADALSDLEIKDSKSNLNKELETLREENRVKSDMLKEKLSKDAENHKAYLKSHQVHRHKLKEMEKEEPLLNEDKERTVLFPIKYHEIWQAYKRAEASFWTAEEIDLSKDIHDWNNRMNENERFFISRVLAFFAASDGIVNENLVENFSTEVQIPEAKSFYGFQIMIENIHSETYSLLIDTYIKDPKESEFLFNAIHTIPEIGEKAEWALRWIQDADALFGERLVAFASIEGVFFSGSFASIFWLKKRGMMPGLTFSNELICRDEGLHTDFACLLFAHLKNKPDPAIVEKIVTEAVEIEQRYFLDALPVALLGMNADLMNQYVEFVADRLLVAFGNKKYYKVENPFDFMENISLAGKTNFFEKRVSDYQKAGVMSKSTKQEAGAFTFNEDF
B3: GAD-Sml1 two-hybrid fusion (plasmid pWJ684, pACTII) (other, not shown: large carriers)
chain: MQNSQDYFYAQNRCQQQQAPSTLRTVTMAEFRRVPLPPMAEVPMLSTQNSMGSSASASASSLEMWEKDLEERLNSIDHDMNNNKFGSGELKSMFNQGKVEEMDF

Test [1] has as its target T1, GAD (Gal4 activation domain alone, empty vector control) (UniProt P04386 768-881).
T1 sequence (looked up): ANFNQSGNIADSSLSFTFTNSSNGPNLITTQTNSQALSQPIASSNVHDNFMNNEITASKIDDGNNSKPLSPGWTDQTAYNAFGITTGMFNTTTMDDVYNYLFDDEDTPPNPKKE
As to the kind of experiment: cell-based or functional assay.

For test [2], the target named is T2, GAD-Rnr2 two-hybrid fusion (plasmid pWJ746) (yeast (Saccharomyces cerevisiae), UniProt P09938 1-399).
T2 sequence (looked up): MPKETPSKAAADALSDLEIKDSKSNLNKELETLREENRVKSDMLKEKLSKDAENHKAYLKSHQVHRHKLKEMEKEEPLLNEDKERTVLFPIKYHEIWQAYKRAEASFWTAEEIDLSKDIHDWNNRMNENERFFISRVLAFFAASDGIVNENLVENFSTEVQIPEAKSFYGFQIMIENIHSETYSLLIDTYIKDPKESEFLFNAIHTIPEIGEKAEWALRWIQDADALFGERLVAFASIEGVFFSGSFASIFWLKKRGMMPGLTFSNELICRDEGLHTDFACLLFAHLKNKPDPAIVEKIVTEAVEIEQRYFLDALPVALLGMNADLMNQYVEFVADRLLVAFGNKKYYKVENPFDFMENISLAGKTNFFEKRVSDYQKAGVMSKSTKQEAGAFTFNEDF
Briefly: cell-based or functional assay.

Test [3] deals with B3. As to the kind of experiment: cell-based or functional assay.
For test [4], the target named is T2, GAD-Rnr2 two-hybrid fusion (plasmid …). As to the kind of experiment: yeast two-hybrid, GBD-Sml1 with GAD-Rnr2. From the text:
(§1) We next tested the possibility that Sml1 interacts with the subunit(s) of RNR since such interactions may provide a regulatory mechanism to inhibit RNR activity. […] In addition, Rnr1 and Rnr2 each interacts with itself, however these interactions are much weaker than the interaction between Sml1 and Rnr1 (Table 2).
(§2) The strains and plasmids for two-hybrid analysis were PJ69-4A, pGBD-C2, pGAD-C2 (James et al., 1996) and pACTII (CLONTECH® Inc.). The primer pair pB-SML1 5' (SEQ ID NO: 11) and pGBD-SML1 3' (SEQ ID NO: 13) (Table 4) was used to amplify the SML1 ORF. After digestion with BamHI and PstI, this PCR product was cloned into the BamHI-PstI sites of pGBD-C2 to construct plasmid pWJ728. Similarly, plasmid pWJ684 contains a BamHI fragment from the PCR product of the SML1 ORF generated using the primer pair pB-SML1 5' and pB-SML1 3' (SEQ ID NO: 12) (Table 4) and inserted at the BamHI site of pACTII. PCR fragments containing the RNR1 or the RNR2 ORF were generated by primer pairs RNR1-ORF 5' (SEQ ID NO: 14) and RNR1 3' (SEQ ID NO: 15) or RNR2-ORF 5' (SEQ ID NO: 17) and RNR2 3' (SEQ ID NO: 16) (Table 4). These fragments were cloned into the BamHI-PstI site of pGBD-C2 and pGAD-C2 to construct pWJ731 and pWJ745 or pWJ729 and pWJ746 respectively.
(§3) The GAL1-HIS3 reporter was assayed on SC-HIS-LEU-TRP medium plus 1-2 mM 3-aminotriazole. […]

Test [5] concerns the target T3, GAD-Rnr1 two-hybrid fusion (plasmid pWJ745) (yeast (Saccharomyces cerevisiae), UniProt P21524 1-888).
T3 sequence (looked up): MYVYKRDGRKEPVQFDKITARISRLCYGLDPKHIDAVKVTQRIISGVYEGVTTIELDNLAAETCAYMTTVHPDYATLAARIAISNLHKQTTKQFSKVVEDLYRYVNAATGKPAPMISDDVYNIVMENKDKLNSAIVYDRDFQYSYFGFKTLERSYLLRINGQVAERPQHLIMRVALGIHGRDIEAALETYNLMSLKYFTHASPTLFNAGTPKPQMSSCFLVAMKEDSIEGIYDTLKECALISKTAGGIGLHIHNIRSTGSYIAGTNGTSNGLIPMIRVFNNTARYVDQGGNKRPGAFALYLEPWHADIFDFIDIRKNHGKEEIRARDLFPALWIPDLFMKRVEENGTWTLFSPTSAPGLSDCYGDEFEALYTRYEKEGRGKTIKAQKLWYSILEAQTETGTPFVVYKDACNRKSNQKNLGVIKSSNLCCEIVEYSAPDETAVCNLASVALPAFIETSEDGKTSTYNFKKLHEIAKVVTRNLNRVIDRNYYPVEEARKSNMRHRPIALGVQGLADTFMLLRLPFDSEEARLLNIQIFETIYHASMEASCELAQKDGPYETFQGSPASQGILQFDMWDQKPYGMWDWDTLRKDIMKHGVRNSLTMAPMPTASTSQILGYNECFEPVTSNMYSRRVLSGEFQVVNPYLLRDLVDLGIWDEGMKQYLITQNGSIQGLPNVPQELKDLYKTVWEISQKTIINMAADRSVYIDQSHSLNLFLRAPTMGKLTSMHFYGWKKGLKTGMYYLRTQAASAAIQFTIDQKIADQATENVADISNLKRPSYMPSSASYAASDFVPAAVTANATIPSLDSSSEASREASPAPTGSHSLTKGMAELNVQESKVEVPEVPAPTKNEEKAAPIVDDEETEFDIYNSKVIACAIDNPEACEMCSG
Briefly: cell-based or functional assay.

Test [6] addresses B1. As to the kind of experiment: yeast two-hybrid, GAD-Sml1 with GBD-Rnr2.
Source text: as §1, §2, §3

As for B1, the “two-hybrid LacZ activity” value in test [1] came to 1.4 Miller Units; in test [2], 2.3 Miller Units; in test [3], 0.9 Miller Units.

B2: GBD-Sml1 two-hybrid fusion (plasmid pWJ728) (other)
chain: MKLLSSIEQACDICRLKKLKCSKEKPKCAKCLKNNWECRYSPKTKRSPLTRAHLTEVESRLERLEQLFLLIFPREDLDMILKMDSLQDIKALLTGLFVQDNVNKDAVTDRLASVETDMPLTLRQHRISATSSSEESSNKGQRQLTVSMQNSQDYFYAQNRCQQQQAPSTLRTVTMAEFRRVPLPPMAEVPMLSTQNSMGSSASASASSLEMWEKDLEERLNSIDHDMNNNKFGSGELKSMFNQGKVEEMDF
notes: also called GBD fusion SML1
As for B2, the binding result in test [4] is “no binding”. For the same molecule, the “two-hybrid LacZ activity” value in test [5] is 31 Miller Units; in test [1] it was 4 Miller Units; in test [3], 3.3 Miller Units.
For B3, the binding result in test [6] is recorded as “no binding”.
